Bridges are numbered along the chain shown (N, C = ends). Primed or numbered codes have the meaning given here. Where no end group is shown, it is not given here. [ ]: non-standard residue; d: D form. PEG4′ = non-peptide PEG4 spacer in the linking moiety; PEG8″ = non-peptide PEG8 spacer in the linking moiety
B1: DP19LysC (ligand)
chain: GPEHLCGAHLVDALYLVCGDRGFYGYGSSSRRAPQTGIVDECCHRSCDLRRLENYCN
B2: MIU-57: B1-PEG20K B^1(H5,Y16,L17)25-C^1-A^1(N18,21), P05019 49-110 (ligand)
chain: {PEG 20 kDa}-GPEHLCGAELVDALYLVCGDRGFYGYGSSSRRAPQTGIVDECCFRSCDLRRLENYCN
modifications: disulfide 18-56, 42-47, 6-43
B3: MIU-67: B0, C8-PEG10K di-PEGylated B^1(H5,Y16,L17)25-C^1(K8)-A^1(N18,21) (ligand)
chain: {PEG 10 kDa}-GPEHLCGAELVDALYLVCGDRGFYGYGSSSRK(PEG 10 kDa)APQTGIVDECCFRSCDLRRLENYCN
modifications: disulfide 18-56, 42-47, 6-43
B4: MIU-69: B0, A14-PEG10K di-PEGylated B^1(H5,Y16,L17)25-C^1(K8)-A^1(K14, N18,21) (ligand)
chain: {PEG 10 kDa}-GPEHLCGAELVDALYLVCGDRGFYGYGSSSRKAPQTGIVDECCFRSCDLK(PEG 10 kDa)RLENYCN
modifications: disulfide 18-56, 42-47, 6-43
B5: MIU-68: B0, B22-PEG10K di-PEGylated B^1(H5,Y16,L17, K22)25-C^1(K8)-A^1(N18,21) (ligand)
chain: {PEG 10 kDa}-GPEHLCGAELVDALYLVCGDK(PEG 10 kDa)GFYGYGSSSRKAPQTGIVDECCFRSCDLRRLENYCN
modifications: disulfide 18-56, 42-47, 6-43
B6: MIU-35: B^1(H5, H10, Y16, L17)25-C^1-A^1 (H8, N18, N21) (ligand)
chain: B1 chain
B7: MIU-58: B1-PEG20K-B1- Dimer, P05019 49-110 (ligand)
chain: {PEG 20 kDa}-GPEHLCGAELVDALYLVCGDRGFYGYGSSSRRAPQTGIVDECCFRSCDLRRLENYCN
modifications: disulfide 18-56, 42-47, 6-43; also: dimer: two chains linked head to head via 20 kDa PEG
B8: MIU-56: C8-PEG20K B^1(H5, Y16, L17)25-PEG8-K-PEG4-A^1(N18, N21) (ligand)
chain: GPEHLCGAELVDALYLVCGDRGFY[PEG8″]K(PEG 20 kDa)[PEG4′]GIVDECCFRSCDLRRLENYCN
modifications: disulfide 18-47, 33-38, 6-34

The binders below were run against human IGF-1 receptor (human) (UniProt P08069) (assay: cell-based or functional assay).

Binder	EC50, Receptor Phosphorylation
B1	20.7 nM

What follows are binders tested against insulin receptor subtype A (human) (UniProt P06213) (assay: cell-based or functional assay).

Binder	EC50, Receptor Phosphorylation
B1	0.3 nM

These binders were tested against insulin receptor subtype B (human) (UniProt P06213) (assay: cell-based or functional assay).

Binder	EC50, Receptor Phosphorylation
B1	1.2 nM

The binders below were run against insulin receptor subtype A (human), P06213 (assay: cell-based or functional assay).

Binder	% Insulin Activity (in vitro; assay not stated)
B2	3.1%
B3	0.2%
B4	1%
B5	0.4%
B6	61.4%
B7	19.7%
B8	14.8%

These binders were tested against insulin receptor subtype B (human), P06213 (assay: cell-based or functional assay).

Binder	% Insulin Activity (in vitro; assay not stated)
B2	1.1%
B3	0.1%
B4	0.5%
B5	0.1%
B6	17.4%
B7	5.8%
